Reference: patent publication US20230159643A1 (H LUNDBECK A S, published 2023)
Where a chain is given by its changes, count along the chain named.

Molecular target: T1, human wild type Sortilin on S18-HEK cells (human, UniProt Q99523 78-831)
T1 sequence: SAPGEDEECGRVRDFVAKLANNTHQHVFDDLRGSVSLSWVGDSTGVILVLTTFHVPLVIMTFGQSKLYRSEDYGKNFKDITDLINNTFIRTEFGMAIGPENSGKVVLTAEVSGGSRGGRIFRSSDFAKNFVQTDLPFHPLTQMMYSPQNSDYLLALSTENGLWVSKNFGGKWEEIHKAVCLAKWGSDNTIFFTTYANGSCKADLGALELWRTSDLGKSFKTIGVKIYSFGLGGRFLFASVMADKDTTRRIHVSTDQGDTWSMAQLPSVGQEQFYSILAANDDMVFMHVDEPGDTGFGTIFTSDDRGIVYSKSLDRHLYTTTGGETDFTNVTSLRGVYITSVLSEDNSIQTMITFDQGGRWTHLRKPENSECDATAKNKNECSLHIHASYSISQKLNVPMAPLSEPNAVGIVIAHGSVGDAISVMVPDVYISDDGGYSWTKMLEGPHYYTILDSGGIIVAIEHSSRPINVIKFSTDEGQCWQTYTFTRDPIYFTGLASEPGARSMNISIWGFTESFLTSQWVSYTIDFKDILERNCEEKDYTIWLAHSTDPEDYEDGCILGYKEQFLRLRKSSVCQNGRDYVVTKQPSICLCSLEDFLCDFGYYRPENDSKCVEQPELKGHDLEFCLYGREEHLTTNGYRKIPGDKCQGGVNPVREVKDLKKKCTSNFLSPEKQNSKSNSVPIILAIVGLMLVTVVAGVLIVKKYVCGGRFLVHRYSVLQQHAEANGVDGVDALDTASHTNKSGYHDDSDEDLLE
Assay: cell-based or functional assay

B1: 044 (antibody, V domains shown)
VH: EVQLLESGGGLVQPGGSLRLSCAASGFTFSSYAMSWVRQAPGKGLEWVSAISGSGGNTYYADSVKGRSTISRDNSKNTLYLQMNSLRAEDTAVYYCASMVRGVFINFDYWGQGTLVTVSS
VL: not shown
extracellular PGRN in medium of Sortilin over-expressing HEK cells (ELISA), % of untreated control: 166%

B2: 093-01 (antibody, V domains shown)
VH: VVQLLESGGGLVQPGGSLRLSCAASGFTFSSYAMSWVRQAPGKGLEWVSAISGSGGSTYYADSVKGRFTISRDNSMHTLFLQINSLRAEDTAVYYCVAIAAAGTNYFDYWGQGTLVTVSS
VL: not shown
extracellular PGRN in medium of Sortilin over-expressing HEK cells (ELISA), % of untreated control: 116%

B3: 093-05 (antibody, V domains shown)
VH: B2 VH
VL: not shown
extracellular PGRN in medium of Sortilin over-expressing HEK cells (ELISA), % of untreated control: 140%

B4: 531 (antibody, V domains shown)
VH: EVQLLESGGGLVQPGGSLRLSCAASGFTFSRYVMSWVRQAPGKGLEWVSTISGSGGSTYYADSVKGRFTISRDNSKNTLFLQMNSLRAEDTAVYYCAEGAFGAFDIWGQGTMVTVSS
VL: not shown
extracellular PGRN in medium of Sortilin over-expressing HEK cells (ELISA), % of untreated control: 140%

B5: 088 (antibody, V domains shown)
VH: EVQLLESGGGLVQPGGSLRLSCAASGFTFSTFAMSWVRQAPGKGLEWVSAISGSGGGTYYADSVKGRFTISRDNSKNTLYLQMNSLRAEDTAVYYCATYIVATIADAFDIWGQGTMVTVSS
VL: not shown
extracellular PGRN in medium of Sortilin over-expressing HEK cells (ELISA), % of untreated control: 121%

B6: 562 (antibody, V domains shown)
VH: B5 VH with G57S, K76E, T98S, Y99P, V101T, A102V, T103V, I104R, A105G, D106E
VL: not shown
extracellular PGRN in medium of Sortilin over-expressing HEK cells (ELISA), % of untreated control: 139%

B7: 566 (antibody, V domains shown)
VH: EVQLLESGGGLVQPGGSLRLSCVASGFTFSTFAMSWVRQAPGKGLEWVSAISGSGGSTYYADSVRGRFTVSRDNSKNTLYLQMNSLRAEDTAVYYCASPITMVRGEAFDIWGQGTMVTVSS
VL: not shown
extracellular PGRN in medium of Sortilin over-expressing HEK cells (ELISA), % of untreated control: 139%

B8: 1276 (antibody, V domains shown)
VH: EVQLLESGGGLVQPGGSLRLSCAASGFTFNTFAMNWVRQAPGKGLEWVSAITGSGGSTYYADSVKGRFTISRDNSKNTLYLQMNSLRAEDTAVYYCATPITVVRGVSAFDIWGQGTMVTVSS
VL: not shown
extracellular PGRN in medium of Sortilin over-expressing HEK cells (ELISA), % of untreated control: 163%

B9: 1289 (antibody, V domains shown)
VH: B8 VH with N30S, T31S, N35S, T52S, Y80S, V102L, S107G
VL: not shown
extracellular PGRN in medium of Sortilin over-expressing HEK cells (ELISA), % of untreated control: 117%

B10: 924 (antibody, V domains shown)
VH: QVQLQESGPGLVKPSQTLSLTCTVSGGSISSGNYYWNWIRQHPGKGLEWIGYIYYSGSTYYNPSLKSRVTISVDTSKNQFSLKLNSVTSADTAVYYCAALITSQNFFFDYWGQGTLVTVSS
VL: not shown
extracellular PGRN in medium of Sortilin over-expressing HEK cells (ELISA), % of untreated control: 125%

B11: 849 (antibody, V domains shown)
VH: EVQLLESGGGLVQPGGSLRLSCAASGFTFNTFAMNWVRQAPGKGLEWVSAISGSGGSTYYADSVKGRFTISRDNSKNTLYLQMNSLRAEDTAVYYCAALVRGVRDAFDIWGQGTMVTVSS
VL: not shown
extracellular PGRN in medium of Sortilin over-expressing HEK cells (ELISA), % of untreated control: 149%
